Laboratory results published in patent US20250066503A1, “CELL INJURY INDUCING THERAPEUTIC DRUG FOR USE IN CANCER THERAPY” (CHUGAI SEIYAKU KABUSHIKI KAISHA, priority 2016, published 2025).
“Also recorded” adds a separate entry of the source.

Legend:
[1] = systemic administration; non-small-cell lung cancer patients; Phase I; cited from earlier work
[2] = system: NCI-H446 human cancer cell line; assay: Cytotoxic activity (cell proliferation inhibition rate, xCELLigence) with human PBMCs; assay type: cell-based; settings: human PBMCs as effector cells; NCI-H446 target cells; 72 hours
Experimental: Using a syringe preloaded with 100 μL of 1,000 units/mL heparin solution (Novo Heparin for injection, 5000 units, Novo Nordisk), 50 mL of peripheral blood was collected from each healthy volunteer (adult individual). This peripheral blood was diluted two-fold in PBS(−), divided into four aliquots, and added into a Leucosep tube for lymphocyte separation (Cat. No. 227290, Greiner Bio-One) that had been loaded with 15 mL of Ficoll-Paque PLUS and subjected to centrifugation in advance. This separation tube was centrifuged (at 2150 rpm for ten minutes at room temperature), and then the mononuclear cell fraction was collected. The cells in the mononuclear cell fraction were washed once with the Dulbecco's Modified Eagle's Medium containing 10% FBS (manufactured by SIGMA, hereinafter referred to as 10% FBS/D-MEM), and then prepared to have a cell density of 4×10^6 cells/mL using 10% FBS/D-MEM. The cell suspension prepared this way was used as the human PBMC solution in the experiment below.
Cytotoxic activity was assessed by the rate of cell proliferation inhibition using the xCELLigence Real-Time Cell Analyzer (Roche Diagnostics). […]
Cytotoxic activity was measured by the method described in Reference Example 1-3-2.
CDR and FR were determined according to the Kabat definition (Kabat numbering). […]

PC-10 xenograft tumor = assay: In vivo drug efficacy, NOD scid/T cell-injected model, PC-10; parameters: species or system NOD scid mice; settings: 1 mg/kg once through the tail vein, compared to the vehicle-administered group
Experimental: Methods called an NOD scid/T cell-injected model, a humanized NOG mouse model, and a human CD3εδγ gene-modified mouse model were used in the in vivo drug efficacy evaluation. Assay using an NOD scid/T cell-injected model was performed as follows. […] T cells expanded by culturing human PBMCs in vitro were injected into the NOD scid mice with confirmed tumor establishment. The mice were treated by administering bispecific antibody-38 and bispecific antibody-30, -31, -32, or -33. Assay using a humanized NOG mouse model was performed as follows. CD34-positive hematopoietic stem cells derived from umbilical cord blood were transplanted into NOG mice by tail vein injection. Human T cells are constantly supplied in the mice, which are called humanized NOG mice. The PC-10 cell line was transplanted into humanized NOG mice. The humanized NOG mice with confirmed establishment of PC-10 tumor were treated by administering antibody-38. Assay using a human CD3εδγ gene-modified mouse model was performed as follows. Cells of mouse-derived cell line forced to express human GPC3 were transplanted into a human CD3εδγ gene-modified mouse model, which had been prepared according to Reference Example 10. The human CD3εδγ gene-modified mice with confirmed tumor establishment were treated by administering antibody-38. […]

catumaxomab
maximum tolerable dose [1]: 5 g/body

B1: GPC3_ERY27_hCE115: humanized anti-human CD3ε chain and anti-human GPC3 bispecific antibody (SEQ ID NOs: 54, 55, and 56) (protein)
chain 1: QVQLVQSGAEVKKPGASVKVSCKASGYTFTDYEMHWIRQPPGQGLEWIGAIDPKTGDTAYSQKFKGRVTLTADKSTSTAYMELSSLTSEDTAVYYCTRFYSYTYWGQGTLVTVSSASTKGPSVFPLAPCSRSTSESTAALGCLVKDYFPEPVTVSWNSGALTSGVHTFPAVLQSSGLYSLSSVVTVPSSSLGTKTYTCNVDHKPSNTKVDKRVESKYGPPCPPCPAPEFRGGPKVFLFPPKPKDTLMISRTPEVTCVVVDVSQEDPEVQFNWYVDGVEVHNAKTKPREEQFASTYRVVSVLTVLHQDWLNGKEYKCKVSNKGLPSSIEKTISKAKGQPREPQVYTLPPSQKEMTKNQVSLTCLVKGFYPSDIAVEWESNGQPENNYKTTPPVLDSDGSFFLYSRLTVDKSRWQEGNVFSCSVMHEALHNRYTQKSLSLSLHHHHHHHH
chain 2: QVQLVESGGGVVQPGRSLRLSCAASGFTFSNAWMHWVRQAPGKGLEWVAQIKAKSNNYATYYAESVKGRFTISRDDSKNSLYLQMNSLKTEDTAVYYCRYVHYGAYYGVDAWGQGTTVTVSSASTKGPSVFPLAPCSRSTSESTAALGCLVKDYFPEPVTVSWNSGALTSGVHTFPAVLQSSGLYSLSSVVTVPSSSLGTKTYTCNVDHKPSNTKVDKRVESKYGPPCPPCPAPEFRGGPKVFLFPPKPKDTLMISRTPEVTCVVVDVSQEDPEVQFNWYVDGVEVHNAKTKPREEQFASTYRVVSVLTVLHQDWLNGKEYKCKVSNKGLPSSIEKTISKAKGQPREPQVYTLPPSQEEMTKNQVSLTCLVKGFYPSDIAVEWESNGQPENNYKTTPPVLDSDGSFFLYSRLTVDKSRWQEGNVFSCSVMHEALHNHYTQESLSLSLDYKDDDDK
chain 3: DIVMTQSPLSLPVTPGEPASISCRSSQSLVHSNRNTYLHWYQQKPGQAPRLLIYKVSNRFSGVPDRFSGSGSGTDFTLKISRVEAEDVGVYYCGQGTQVPYTFGQGTKLEIKRTVAAPSVFIFPPSDEQLKSGTASVVCLLNNFYPREAKVQWKVDNALQSGNSQESVTEQDSKDSTYSLSSTLTLSKADYEKHKVYACEVTHQGLSSPVTKSFNRGEC
modifications: An artificially generated sequence
cytotoxic activity (T-cell-dependent cellular cytotoxicity) [2]: reduction of the activity; also recorded: lower

B2: antibody-39: bispecific antibody; CD3-binding variable region SEQ ID NO: 433, GPC-binding SEQ ID NO: 434, common L chain SEQ ID NO: 435 (antibody)
heavy 1: QVQLVQSGAEVKKPGASVKVSCKASGYTFTDYEMHWIRQPPGQGLEWIGAIDPKTGDTAYSQKFKGRVTLTADKSTSTAYMELSSLTSEDTAVYYCTRFYSYTYWGQGTLVTVSS
heavy 2: EVQLVETGGSLVQPGKSLKLTCATSGFTFSNAWMHWVRQSPEKQLEWVAQIKAKSNNYATYYAESVKGRFTISRDDSKSNIYLQMNSLKEEDTAVYYCRYVHYGAYYGVDAWGQGTSVTVSS
light: DIVMTQSPLSLPVTPGEPASISCRSSQSLVHSNRNTYLHWYQQKPGQAPRLLIYKVSNRFSGVPDRFSGSGSGTDFTLKISRVEAEDVGVYYCGQGTQVPYTFGQGTKLEIK
modifications: An artificially generated sequence
anti-tumor effect (PC-10 xenograft tumor): evident anti-tumor effect
